Three substances from patent publication US20240418729A1 can be followed below.

In assay [1] the target is human kappa light chains (kappa LCs) of control pooled human serum (human). Briefly: affinity capture from 50 µl IgG-depleted serum, elution, LysC digestion, PRM mass spectrometry.
For assay [2], the target named is human lambda light chains (lambda LCs) of control pooled human serum (human). Briefly: affinity capture from 100 µl IgG-depleted serum, elution, LysC digestion, PRM mass spectrometry.
Assay [3] deals with human kappa light chains (kappa LCs) of control pooled human serum (human). Briefly: affinity capture from IgG-depleted serum, elution, LysC digestion, PRM mass spectrometry.

“Capture Select affinity beads specific for kappa (KappaXP) LCs”: the fold increase in kappa FLC dimer signal compared to un-enriched serum in assay [1] is 186 fold.
For “Capture Select affinity beads specific for lambda (LambdaXP) LCs”, in assay [2], the fold increase in lambda FLC dimer signal compared to un-enriched serum came to 113 fold.
In assay [3], protein L agarose registered a fold increase in kappa FLC dimer signal compared to un-enriched serum of 155 fold.
